The values below come from the DeepSol protein solubility set.

A short description of this data set: soluble on expression in E. coli; label from the status in PepcDB or PDB records.
“MKTTYNRWWKKKVWFGRKDMSYKVIVDSCGEFTPEMKADGGFEHVALGIQIEDTQWTDDDSLKQEELLLKIAESTSCAKTSCPSPERYMESYHCDAERIYVVTLSAELSGSYNSAVLGKNLYEEEYGEKQIHVFNSRSASVGETLIALKVQQCEKAGMTFEEVVESVECYIEEQHTYFVLENLDTLRKNGRLTGIKSLVAGALNIKPIMGSTPQGTICQKEKARGMKKALVKMADCVAADVVNAGDKILAIAHCNCEERAKEVQRLLKERFAVKSSFIVDTSGISTVYANDGGIIVVV”: the “soluble on expression in E. coli” value is given as “soluble”.

In the case of “MAQVFNFSSGPAMLPAEVLKLAQQELCDWHGLGTSVMEISHRGKEFIQVAEEAEQDFRDLLNIPSNYKVLFCHGGGRGQFAGVPLNLLGDKTTADYVDAGYWAASAIKEAKKYCAPQIIDAKITVDGKRAVKPMREWQLSDNAAYLHYCPNETIDGIAIDETPDFGPEVVVTADFSSTILSAPLDVSRYGVIYAGAQKNIGPAGLTLVIVREDLLGKAHESCPSILDYTVLNDNDSMFNTPPTFAWYLSGLVFKWLKAQGGVAAMHKINQQKAELLYGVIDNSDFYRNDVAQANRSRMNVPFQLADNTLDKVFLEESFAAGLHALKGHRVVGGMRASIYNAMPIEGVKALTDFMIDFERRHG”, the “soluble on expression in E. coli” value is “not soluble”.

On to “MSKKVAILVDGDFFIRCYKSHLKKQPEDLNPKKLAHHIHTYCLKHINKKNDEELYRIFFYDCKPLKKKAHYPYTQKALDLSKSPTYREREELHEHLISKPCLALRLGYLDEKNARWVIRDQEKEKKLFNRRISIEEFQNDDFIYHAKQKGVDIKIGLDIATLALKKLVQKIVLISGDSDFVPASKLARVEGIIFTLDPMGNHIREDLKEHIDYLTTRLPQFKQQ”, for which the “soluble on expression in E. coli” value is “soluble”.

For the sequence “MLAQCFQPNSSGIYPQEKLPLILETGVSPDYALIDSGNGKKLERYGAYRIIRPEGQALWKPALSEKHWANVDAIFTGNRDEEGVGRWYFPKKPLDETWPLSWNGLSFLGRFTSFRHVGVFPEQDAHWRFMEKQIVNATRPIKLLNLFGYTGIASLISARAGANVTHVDASKKAIAWAKANQEKAGLSDRSIRWICDDAVKFVERELRRQKTYDMILLDPPAYGRGPHGEIWQLFDHLPAMITNCRKLLSDEPLAVVLTAYSIRASFYALHTLMRDEFINLGGTVESGELILREKTTGRALSTSLFSRWIA”, the “soluble on expression in E. coli” value was “not soluble”.

As to “MEHPEGEDPTLLPPALAARALGVSPATLRRYAALWERLVGPLPRDPRGGRLWPKEALARLRAAREAHLREGLPLEEALARVQGDFPALALPSEGEALALLRALAERLERVEGELRALREENARLREALKALEPPRRRPWWRFWGH”, the “soluble on expression in E. coli” value is recorded as “soluble”. Under “GPGSMLGSPLFPVAMDSFFDEDECERLGVWEDPRCLRAAEYTQCVATIRALIEQYGVAAAPLHTVKDAAQFLRFEASSAVSHPPMRESAVSYTVKSYGEASKKCVSEANNIVLSSLCMNDACVAGNAADGTDVALEKVFIVCEGFLIFGYPELCNMFDFFVFVHSDNETACLRRFFRGSRRKKRKPQGGNCDRILRMRTSRVNAELWSSEGAAANKTLSPSFSSVLPHLKYMPPQPSSPNDYQGFWLQSEYKELPPPMPFGMSGLKAPPYDWLEVKDLQYVKQMLHQWANASCVDDVEGVLGRYFEFRYWFYYEVLFYHYQLRGISEENVTTACQAKGTTKTSPSQSVLHIKNDASVSCVMLDSQLLALAQQVSGDLINGEGEVRLLLGWN” stands “not soluble”; under “MFNKVIMVGRLTRNVELKYLPSGSAAATIGLATSRRFKKQDGTLGEEVCFIDARLFGRTAEIANQYLSKGSSVLIEGRLTYESWMDQTGKKNSRHTITADSLQFMDKKSDNPQANAMQDSIMHENSNNAYPANH”, “soluble”; under “MKNFHPTGNCPVRDVISRLGDKWSMLVLITLNANGTMRFSDIHKTIEDISQRMLTVTLRTLESDGLIERKIYAEVPPRVEYYLTDTGGTLIPHIEGLVGWALENMDTILEHRKSN”, “not soluble”. Under “AFSSTTTLTPSNVASREFIDTRAPNPEICVQYGASAMVMDARLFVTLNPFNVYVAQPNIRPGCVLRQNNWAILENKKLVTSDQVRECKNRLNTFGFTGNLDSEKPDIRCIYQNESAQNFFLSQPGAVGPSQDTERF” stands “not soluble”. Under “MGSRIMHVIIANGIAEKLSIHDKTSFLLGAVAPDAVHSKKEKGTSHFYAGTTKNYTRRIDYDSFFHKYESHINSPFILGYYTHLIADDNWLSGFFLPWLKNRIENDETIAPLYYNDFKLLNAKLLHHYDQEQQLFSLLNQEAHIVDIEEVSKENVLAFRKYLFEDMLYPKQYLHEDLQVFTFDQIVGYIETAIEKGVFFIKQLSNEKSTSKI” stands “not soluble”.
